The Human Domainome abundance scans (Beltran et al. 2025)
± gives the uncertainty stated by the source.

B1: POU domain, class 4, transcription factor 2, residues 256 to 327; numbered along this chain, Q12837 (parent)
chain: RDLEAFAERFKQRRIKLGVTQADVGSALANLKIPGVGSLSQSTICRFESLTLSHNNMIALKPILQAWLEEAE

Variants of: B1
Experiment: abundance fitness (aPCA) (normalised: wild type 0, dead -1); higher = more abundant; growth selection in yeast, the domain comes from the species named
Conditions: Homo sapiens

Abundance fitness, by site and new letter:
W67: R -0.755 ± 0.36; Q 0.108 ± 0.3
L68: D -0.617 ± 0.21; C -0.585 ± 0.22; G -0.777 ± 0.32; M -0.461 ± 0.26; W -0.663 ± 0.49; N -0.232 ± 0.23; S -0.559 ± 0.16; Q -0.107 ± 0.22; Y -0.372 ± 0.17; T -0.733 ± 0.3; R -0.847 ± 0.43; P -0.589 ± 0.39; A -0.483 ± 0.12; V -0.384 ± 0.19
K61: L -0.148 ± 0.07; S -0.42 ± 0.087; F -0.38 ± 0.16; R 0.049 ± 0.071; H -0.137 ± 0.12; N -0.393 ± 0.21; Q -0.047 ± 0.097; E -0.32 ± 0.095; I -0.328 ± 0.099; T -0.02 ± 0.1; Y -0.237 ± 0.15; W -0.125 ± 0.08; A -0.178 ± 0.07; M 0.037 ± 0.093; G -0.47 ± 0.1; P -0.802 ± 0.17
M57: S -0.602 ± 0.081; G -0.41 ± 0.075; W -0.374 ± 0.075; E -0.565 ± 0.086; C -0.251 ± 0.11; K -0.892 ± 0.34; P -0.924 ± 0.11; V -0.54 ± 0.11; T -0.701 ± 0.13; F -0.428 ± 0.26; Q -0.859 ± 0.21; H -0.547 ± 0.16; A -0.306 ± 0.13; L -0.157 ± 0.062; R -0.904 ± 0.088
I58: L 0.02 ± 0.056; E -0.258 ± 0.12; W -0.152 ± 0.061; F -0.287 ± 0.11; H -0.237 ± 0.23; A -0.139 ± 0.079; N -0.077 ± 0.28; C -0.374 ± 0.21; R 0.07 ± 0.045; Y -0.461 ± 0.16; S -0.017 ± 0.057; G -0.287 ± 0.076; D -0.615 ± 0.27; V -0.028 ± 0.081; T -0.235 ± 0.14; P -0.854 ± 0.17; K 0.063 ± 0.076; M -0.118 ± 0.12
E69: S -0.097 ± 0.051; H -0.481 ± 0.17; V -0.178 ± 0.095; R -0.211 ± 0.07; F -0.251 ± 0.092; Q -0.001 ± 0.17; G -0.18 ± 0.07; Y -0.367 ± 0.13; K -0.458 ± 0.24; I -0.248 ± 0.17; T -0.133 ± 0.095; D -0.349 ± 0.19; C -0.062 ± 0.12; L -0.099 ± 0.1; A -0.119 ± 0.083; N -0.219 ± 0.14
E70: K 0.076 ± 0.14; G -0.313 ± 0.08; C -0.102 ± 0.11; I -0.156 ± 0.24; T -0.231 ± 0.12; F -0.543 ± 0.46; D -0.212 ± 0.15; R -0.075 ± 0.053; W -0.45 ± 0.11; L -0.454 ± 0.083; H -0.666 ± 0.17; S -0.11 ± 0.063; V -0.186 ± 0.082; P -0.826 ± 0.16; Y -0.028 ± 0.48; A -0.058 ± 0.11; M -0.332 ± 0.1
L60: D -0.614 ± 0.21; F -0.29 ± 0.14; R -0.607 ± 0.056; Y -0.081 ± 0.31; Q -0.843 ± 0.16; E -0.866 ± 0.21; W -0.729 ± 0.14; G -0.713 ± 0.13; T -0.436 ± 0.14; C -0.12 ± 0.07; P -0.971 ± 0.23; N -0.682 ± 0.25; M -0.038 ± 0.049; S -0.77 ± 0.11; I 0.201 ± 0.28; A -0.147 ± 0.11; H -0.944 ± 0.47
N56: D 0.281 ± 0.31; W -0.057 ± 0.13; F -0.149 ± 0.24; Y -0.248 ± 0.45; G -0.024 ± 0.13; V 0.083 ± 0.2; H 0.128 ± 0.16; S 0.077 ± 0.078; R -0.134 ± 0.084; L 0.07 ± 0.077; P -0.52 ± 0.082; Q 0.275 ± 0.39; T -0.023 ± 0.25; K 0.048 ± 0.17; M -0.304 ± 0.31
Q65: D -0.186 ± 0.28; C -0.132 ± 0.14; A -0.084 ± 0.052; E 0.058 ± 0.092; P -0.528 ± 0.081; W -0.504 ± 0.18; S -0.028 ± 0.058; V -0.324 ± 0.062; I -0.502 ± 0.2; R -0.37 ± 0.079; M -0.235 ± 0.099; T -0.19 ± 0.08; K -0.074 ± 0.076; F -0.369 ± 0.071; N -0.309 ± 0.15; G -0.106 ± 0.043
P62: K -0.698 ± 0.13; D -0.18 ± 0.33; G -0.628 ± 0.11; T -0.533 ± 0.1; H -0.23 ± 0.2; M -0.811 ± 0.29; F -0.761 ± 0.24; Y -0.827 ± 0.2; R -0.771 ± 0.12; Q -0.623 ± 0.16; I -0.638 ± 0.17; L -0.982 ± 0.15; V -0.726 ± 0.11; N -0.44 ± 0.26; A -0.668 ± 0.082; E -0.457 ± 0.093; S -0.465 ± 0.065
E72: Y -0.206 ± 0.48; D -0.425 ± 0.28; A -0.617 ± 0.28; T -0.498 ± 0.28
